Laboratory results: patent US20180037638A1

What was measured:
[1] = target: auto-inducing peptide (AIP) 2 (Staphylococcus aureus); assay: cell-based or functional assay
[2] = target: auto-inducing peptide (AIP) 2 (Staphylococcus aureus); assay: SPR, antibody immobilized on CM5 chip, AIP2 as analyte, 1:1 Langmuir fit

B1: C7 (antibody, V domains shown)
VH: EVQLVQSGAEMKKPGASMKVSCKTSGYTFARKYMHWLRQAPGQGLEWMGIINPTGGTKSYAPKFQGRVTMTSDMSTNTVYMELNSLRSEDTAVYYCVSDDEEPVWGQGTMVTVSS
VL: QSALTQPPSVSKGLRQTATLTCTGNSNNVGSQGAAWLQQHQGHPPKVLSYRNNNRPSGISERFSASRSGNTASLTITGLQPEDEGDYYCSAWDSSLSAPVFGGGTKLTVL
Which results are given for B1?
Inhibition of AIP2 QS (IC50; nM), agr-driven YFP reporter strain USA100-AH2619 [1]: 33.7 nM; Inhibition of AIP2 QS (IC50; nM), agr-driven YFP reporter strain USA100-AH2625 [1]: 31.2 nM

B2: E7 (antibody, V domains shown)
VH: EVQLVQSGAEVKKPGASVRVSCKTSGYSFTSYDINWVRQTTGQGLEWMGWVNPTSGSTGYAQKFQGRVTMTANTAINTAYMELRDLRSEDTAVYFCVRDVPFDPWGQGTLVTVSS
VL: LQSVLTQPASVSGSPGQSITISCTGTSSDVGKYTFVSWYQQHPGKAPKVMVYEVNKRPLGVSPRFSGSKSGNTAYLTISGLQAEDEADYYCSSYTSSSTVVFGGGTKLTVL
For B2, which Inhibition of AIP2 QS (IC50; nM), agr-driven YFP reporter strain USA100-AH2619 [1] is on record?
The Inhibition of AIP2 QS (IC50; nM), agr-driven YFP reporter strain USA100-AH2619 was 34.2 nM.

What about the Inhibition of AIP2 QS (IC50; nM), agr-driven YFP reporter strain USA100-AH2625 [1] of the same binder?
The Inhibition of AIP2 QS (IC50; nM), agr-driven YFP reporter strain USA100-AH2625 was 31 nM.

B3: D3 (antibody, V domains shown)
VH: EVQLVQSGAEVKKPGSSVKVSCKAYGGTFGSYGVSWVRRAPGQGLEWMGRLIPIFGTRDYAQKFQGRVTLTADESTNTAYMELSSLRSEDTAVYYCARDGDYYGSGSYYGMDVWGQGTLVTVSS
VL: SYELTQPPSASGSPGQSVTISCTGTSSDVGGYNYVSWYQQHPGKAPKVMIYEVSKRPSGVSNRFSGSKSGNTASLTISGLQAEDEADYYCSSYTSSSTHVVFGGGTKVTVL
Which Kd [2] does the source give for B3 here?
Its Kd is 49 nM.
